Source: patent publication US20080131465A1, “Group a Streptococcus Crge Protein” (priority 2004, published 2008)

B1: Spy1542: Streptococcus pyogenes protein encoded by crgE (spy1542), cloned, expressed as native protein and purified; confers resistance to cathelicidins (protein)
chain: MESYITPKHQEACVAAIKQIVSYPSVCHEGENGTPFGQAIQDILEATLDLCQGLGFHTYIDPEGYYGYAELGDQKEVLAILCHLDVVPEGDRQLWKTDPFDCVEADGCLFGRGTQDDKGPTMMALFATKALIDAGVTFNKRIRFIFGTDEETLWRCMNRYNDVEEQATFGFAPDSSFPLTYAEKGLLQAKLVGKGSDKLSLEIGQAYNVVPARASYQGDKLEALQKELDKLGFEYVVKEGELTVYGLAQHAKDAPDGINAMIRLAKALVVLEPNKTLDFLANVIDEDGRALNIFGRIEDEPSGKLSFNAAGLTLTKDKAEIRLDIRIPVLADKEKLVQQLSQKAQEYGLTYEEFDYLAPLYVPLDSELVTTLLSVYRKKTGDQSPAQSSGGATFARTMKNCVAFGALFPDAVQTEHQENEHIVLADAYRAMDIYAEAIYRLTR
modifications: Streptococcus pyogenes
notes: Streptococcus pyogenes protein encoded by crgE (spy1542), cloned, expressed as native protein and purified; confers resistance to cathelicidins

Legend:
[1] = system: WT and Δspy1542 mutant strains; assay: FACS analysis of LL-37 localised on the bacterial surface; assay type: cell-based, Streptococcus pyogenes; details: 0.8 μM LL-37; WT versus Δspy1542 mutant; 5 or 10 min at 37° C.
Protocol: An experiment was carried out to see if LL-37 bound to the surface of the bacteria. 0.8 μM LL-37 was added to the bacteria in a method similar to that for the bacterial killing assay. The amount of LL-37 localised on the bacterial surface was then compared for WT and Δspy1542 mutant strains by FACS analysis. […] This “protective” effect also increases with time. The WT strains therefore appear to be shielded against LL-37.

Streptococcus pneumoniae = assay: antimicrobial assay on Streptococcus pneumoniae; assay type: cell-based
Protocol: (§1) The mutant was obtained using allelic exchange gene replacement mutagenesis. Positive clones were confirmed by PCR and used for further experiments. Quantitative real time PCR confirmed the absence of crgR mRNA in the mutant. ΔcrgR mutant cathelicidin resistance was tested in a bacterial killing assay. Bacteria were grown in THB to OD600 0.2 and diluted in […] Tris-HCl, pH7.5, containing 5 mM glucose. 1 ml of bacteria (˜10^6 cfu) were incubated together with different concentrations of cathelicidins for 1 hour at 37° C. with no agitation. The bactericidal activity was assessed by plating serial dilutions of the incubation mixtures on THY-blood agar.
In order to see if a similar mechanism of action was found in other bacteria encoding heterologous proteins, the antimicrobial assay was carried out as described above, except using Streptococcus pneumoniae. […] The experiment was repeated by adding 70 μg of native Spy1542 in addition to 0.4 μM, 0.8 μM or 1.6 μM of LL-37. In this second experiment, 100% survival at 0.4 μM was noted. Therefore Spy1542 appears to be able to inhibit cathelicidin action also in heterologous systems

GAS strain SF370 WT = assay type: cell-based, Streptococcus pyogenes; details: 1 hour at 37° C., ~10^6 cfu
Protocol: as §1

[2] = system: ΔcrgR mutant of GAS strain SF370; assay type: cell-based, Streptococcus pyogenes; details: 1 hour at 37° C., ~10^6 cfu
Protocol: as §1

[3] = system: Wild-type, ΔcrgR and ΔcrgR/Δspy1542-43 strains challenged with cathelicidin; assay: bacterial killing assay with purified Spy1542 added to the medium; assay type: cell-based, Streptococcus pyogenes; details: different concentrations of purified Spy1542
Protocol: The involvement of Spy1542 in the resistance mechanism to antimicrobial peptides was investigated further by cloning and expressing Spy1542 as a native protein. The expressed protein was purified by using a Q sepharose column followed by Cu chelating and finally, gel filtration (FIG. 7). The purified protein was successively used to study its effect when added to the medium in bacterial-killing assays.
Wild-type; ΔcrgR and ΔcrgR/Δspy1542-43 strains were challenged with 0.4 μM LL-37 or CRAMP, and added with different concentrations of the purified protein.
In addition, Spy1542 protein was also able to enhance in a dose dependent manner the survival rate of the ΔcrgR mutant (FIG. 8a).

[4] = system: bacteria challenged with LL-37; assay: pre-treatment of bacteria with Spy1542, washing, then LL-37 challenge; assay type: cell-based, Streptococcus pyogenes; details: Spy1542 added, bacteria pelleted, washed, resuspended; then 0.4 μM LL-37
Protocol: A further experiment was therefore carried out to confirm that the effect of Spy1542 was indirect. Spy1542 was added to the bacteria. The bacteria were then pelleted, washed and resuspended. 0.4 μM LL-37 was then added to the suspension.

LL-37 = target: T1, LL-37 (Homo sapiens, UniProt P49913); assay: mass spectrometry of LL-37 in supernatant after Spy1542 treatment; details: WT strain, 0.4 μM LL-37, after 30 minutes
T1 construct: release the mature C-terminal antimicrobial peptide
T1 sequence (P49913 134-170 limits assumed): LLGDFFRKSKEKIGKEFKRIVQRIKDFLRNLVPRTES
Protocol: Spy1542 was therefore used to treat the WT strain challenged with 0.4 μM LL-37 in a process similar to the bacterial killing assay described above. After 30 minutes, the bacteria were pelleted and the supernatant was analysed. It was discovered by mass spectrometry that the LL-37 in the supernatant was unmodified by the action of Spy1542 (FIG. 13).

| Molecule | amount of LL-37 localised on the bacterial surface [1] | killing of bacteria (Streptococcus pneumoniae; increasing concentrations of LL-37) | concentration necessary to kill 50% of bacterial cells (LD50) (GAS strain SF370 WT) [µM] | concentration necessary to kill 50% of bacterial cells (LD50) [2] [µM] | inhibition of CRAMP bactericidal activity ([3]; 0.4 μM CRAMP) | inhibition of LL-37 action (number of colonies, survival rate) ([3]; 0.4 μM LL-37) | survival (Streptococcus pneumoniae; 70 μg native Spy1542 added with 0.4 μM LL-37) [%] | protective effect against LL-37 after pre-treatment and washing [4] | modification of LL-37 in the supernatant by Spy1542 (LL-37) |
| --- | --- | --- | --- | --- | --- | --- | --- | --- | --- |
| CC[C@H](C)[C@H](NC(=O)[C@H](CCCCN)NC(=O)[C@H](CCC(=O)O)NC(=O)[C@H](CCCCN)NC(=O)[C@H](CO)NC(=O)[C@H](CCCCN)NC(=O)[C@H](CCCNC(=N)N)NC(=O)[C@H](Cc1ccccc1)NC(=O)[C@H](Cc1ccccc1)NC(=O)[C@H](CC(=O)O)NC(=O)CNC(=O)[C@H](CC(C)C)NC(=O)[C@@H](N)CC(C)C)C(=O)NCC(=O)N[C@@H](CCCCN)C(=O)N[C@@H](CCC(=O)O)C(=O)N[C@@H](Cc1ccccc1)C(=O)N[C@@H](CCCCN)C(=O)N[C@@H](CCCNC(=N)N)C(=O)N[C@H](C(=O)N[C@H](C(=O)N[C@@H](CCC(N)=O)C(=O)N[C@@H](CCCNC(=N)N)C(=O)N[C@H](C(=O)N[C@@H](CCCCN)C(=O)N[C@@H](CC(=O)O)C(=O)N[C@@H](Cc1ccccc1)C(=O)N[C@@H](CC(C)C)C(=O)N[C@@H](CCCNC(=N)N)C(=O)N[C@@H](CC(N)=O)C(=O)N[C@@H](CC(C)C)C(=O)N[C@H](C(=O)N1CCC[C@H]1C(=O)N[C@@H](CCCNC(=N)N)C(=O)N[C@H](C(=O)N[C@@H](CCC(=O)O)C(=O)N[C@@H](CO)C(=O)O)[C@@H](C)O)C(C)C)[C@@H](C)CC)C(C)C)[C@@H](C)CC [LL-37] | WT strain had less LL-31 on the bacterial surface | shown to kill the bacteria | 0.103 | 0.28 | – | – | – | – | – |
| B1 | – | – | – | – | inhibited cathelicidin bactericidal activity in a dose-dependent fashion | inhibits LL-37 action in a dose dependent manner | 100 | protective effect of Spy1542 was maintained and that it was dose dependent | unmodified |
